Results as given in the supplement of paper PMC9732359.
± gives the uncertainty stated by the source.

Test: protein stability index of a GFP-peptide fusion (yeast GPS) (PSI 1-4); higher = more stable; sorted into four equal gates, so the index is relative within each strain
How it was run: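 Tiled yeast protein peptides of 17 residues were each joined downstream of GFP, on plasmids that also express Cherry. The pooled library was maintained in yeast, and mid-log cultures in leucine-free medium were sorted into four equal gates on the GFP/Cherry ratio. Plasmids from every gate were amplified by PCR and sequenced on Illumina, with barcodes linking reads to strains. The protein stability index of a peptide is its gate-number-weighted read frequency summed over the gates.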

FDYMNRYWVQKERSDGK [CDC53]
protein stability index (doa10∆): 2.26 ± 0.16
protein stability index (san1∆): 2.39 ± 0.21
protein stability index (ubr1∆): 2.57 ± 0.18

FEDQVTNILTKVDINAD [PRP28]
protein stability index (doa10∆): 3.19 ± 0.2
protein stability index (san1∆): 3.2 ± 0.18

FEEDEKNSDVWFLDHNY [RPN8]
protein stability index (doa10∆): 2.7 ± 0.077
protein stability index (pdr5∆): 1.73 ± 0.073
protein stability index (san1∆): 1.5 ± 0.14
protein stability index (ubr1∆): 1.48 ± 0.084

FEGCYYTPEESAWIWPM [RPC25]
protein stability index (pdr5∆): 2.3 ± 0.21
protein stability index (san1∆): 2.55 ± 0.2
protein stability index (ubr1∆): 2.52 ± 0.13

FEGNALIRRLVRVGVLS [RPS9A]
protein stability index (doa10∆): 2.44 ± 0.1
protein stability index (pdr5∆): 2.52 ± 0.18
protein stability index (ubr1∆): 1.15 ± 0.17

FEGVTHRWGTKKLPRKT [RPL3]
protein stability index (doa10∆): 3.31 ± 0.11
protein stability index (pdr5∆): 2.98 ± 0.13
protein stability index (san1∆): 3.11 ± 0.082
protein stability index (ubr1∆): 3.34 ± 0.061

FEIIDEASKKSAVKPRP [FAS1]
protein stability index (doa10∆): 3.21 ± 0.13
protein stability index (pdr5∆): 3.28 ± 0.14
protein stability index (san1∆): 3.45 ± 0.064
protein stability index (ubr1∆): 3.3 ± 0.066

FEIQGVPPMKLAYSKIV [YMR129W/POM152]
protein stability index (doa10∆): 1.59 ± 0.074
protein stability index (pdr5∆): 2.01 ± 0.063
protein stability index (san1∆): 1.53 ± 0.1
protein stability index (ubr1∆): 1.74 ± 0.062

FERFPSPSTSANVPSTA [RPN4]
protein stability index (doa10∆): 1.81 ± 0.046
protein stability index (pdr5∆): 1.92 ± 0.04
protein stability index (san1∆): 1.56 ± 0.077
protein stability index (ubr1∆): 2.36 ± 0.039

FESLYNSNDSVFVGSGK [BRR2]
protein stability index (doa10∆): 3.24 ± 0.098
protein stability index (pdr5∆): 3.18 ± 0.11
protein stability index (san1∆): 2.97 ± 0.13
protein stability index (ubr1∆): 3.15 ± 0.11

FFAAIRFVLSDDYSNLK [SMC3]
protein stability index (doa10∆): 2.27 ± 0.091
protein stability index (pdr5∆): 2.68 ± 0.13
protein stability index (san1∆): 2.56 ± 0.1
protein stability index (ubr1∆): 2.7 ± 0.07

FGAKPEEQKSSDTSKPA [YJL041W/NSP1]
protein stability index (doa10∆): 3.23 ± 0.083
protein stability index (pdr5∆): 2.91 ± 0.084
protein stability index (san1∆): 3.32 ± 0.088
protein stability index (ubr1∆): 3.11 ± 0.09

FGDTKSESKQLGNTSSV [SWI3]
protein stability index (doa10∆): 3.54 ± 0.12
protein stability index (pdr5∆): 3.16 ± 0.081
protein stability index (san1∆): 3.13 ± 0.066
protein stability index (ubr1∆): 3.35 ± 0.05

FGHIMEDFQVLRLGRGI [YDL088C/ASM4]
protein stability index (doa10∆): 3.04 ± 0.066
protein stability index (pdr5∆): 2.96 ± 0.055
protein stability index (san1∆): 2.49 ± 0.068
protein stability index (ubr1∆): 2.96 ± 0.044

FGRTLASVTKEILGTAQ [RPL12A]
protein stability index (doa10∆): 1.46 ± 0.1
protein stability index (pdr5∆): 1.53 ± 0.047
protein stability index (san1∆): 1.38 ± 0.084
protein stability index (ubr1∆): 1.62 ± 0.078

FGVTKARWPAKSVKFVQ [RPL17A]
protein stability index (doa10∆): 2.63 ± 0.088
protein stability index (pdr5∆): 2.51 ± 0.077
protein stability index (san1∆): 2.55 ± 0.069
protein stability index (ubr1∆): 3.05 ± 0.059

FHSTYLMNGVKPFKSFL [FAS1]
protein stability index (doa10∆): 2.65 ± 0.12
protein stability index (pdr5∆): 2.55 ± 0.078
protein stability index (san1∆): 3.33 ± 0.15
protein stability index (ubr1∆): 2.87 ± 0.068

FIAVGQILPESQWNDSS [SIR3]
protein stability index (doa10∆): 2.27 ± 0.16
protein stability index (pdr5∆): 3.08 ± 0.14
protein stability index (san1∆): 2.61 ± 0.24
protein stability index (ubr1∆): 2.71 ± 0.097

FIERNFTPQEIEYCSAQ [FAS2]
protein stability index (pdr5∆): 3.54 ± 0.26
protein stability index (san1∆): 2.72 ± 0.26
protein stability index (ubr1∆): 2.73 ± 0.22

FIKFKLIQQVPPGLDAL [CDC53]
protein stability index (doa10∆): 2.29 ± 0.067
protein stability index (pdr5∆): 2.13 ± 0.11
protein stability index (san1∆): 2.23 ± 0.13
protein stability index (ubr1∆): 2.27 ± 0.095

FIRVIGSELVQKYVGEG [RPT1]
protein stability index (doa10∆): 2.59 ± 0.21
protein stability index (pdr5∆): 2.57 ± 0.076
protein stability index (san1∆): 3 ± 0.083
protein stability index (ubr1∆): 2.84 ± 0.05

FISSGTSLLDSLISVLE [YJL039C/NUP192]
protein stability index (doa10∆): 2 ± 0.056
protein stability index (pdr5∆): 2.27 ± 0.052
protein stability index (san1∆): 2.17 ± 0.08
protein stability index (ubr1∆): 1.91 ± 0.047

FITFSLDDWISIGYETE [IRR1]
protein stability index (doa10∆): 2.56 ± 0.078
protein stability index (pdr5∆): 2.61 ± 0.088
protein stability index (san1∆): 2.65 ± 0.084
protein stability index (ubr1∆): 2.6 ± 0.071

FITRLAQGLLHLGKGTM [RPN1]
protein stability index (doa10∆): 2.9 ± 0.086
protein stability index (pdr5∆): 2.99 ± 0.091
protein stability index (san1∆): 2.3 ± 0.14
protein stability index (ubr1∆): 2.23 ± 0.074

FIVVPDLLKNAPLFKKN [SMD3]
protein stability index (doa10∆): 2.07 ± 0.053
protein stability index (pdr5∆): 1.57 ± 0.042
protein stability index (san1∆): 1.66 ± 0.11
protein stability index (ubr1∆): 1.32 ± 0.035

FIYKKVLKEKDVPAYNV [SRB8]
protein stability index (doa10∆): 2.99 ± 0.086
protein stability index (pdr5∆): 3.05 ± 0.062
protein stability index (san1∆): 2.95 ± 0.058
protein stability index (ubr1∆): 3.13 ± 0.042

FKELCYENKDNLTAGII [PRE3]
protein stability index (doa10∆): 2.95 ± 0.044
protein stability index (pdr5∆): 2.95 ± 0.042
protein stability index (san1∆): 2.93 ± 0.034
protein stability index (ubr1∆): 2.83 ± 0.039

FKGALTIKILPENTAMF [YMR129W/POM152]
protein stability index (doa10∆): 2.32 ± 0.083
protein stability index (pdr5∆): 2.14 ± 0.052
protein stability index (san1∆): 2.33 ± 0.056
protein stability index (ubr1∆): 2.25 ± 0.05

FKGVIVKIVDKDGIRQV [PRE1]
protein stability index (doa10∆): 2.26 ± 0.18
protein stability index (pdr5∆): 3.11 ± 0.19
protein stability index (san1∆): 3.16 ± 0.23
protein stability index (ubr1∆): 3.13 ± 0.092

FKHISVKDFTSLGFNEV [RPO21]
protein stability index (doa10∆): 3.08 ± 0.21
protein stability index (pdr5∆): 2.38 ± 0.12
protein stability index (san1∆): 2 ± 0.14
protein stability index (ubr1∆): 2.25 ± 0.044

FKLVSTPSSNSNSSELE [MED1]
protein stability index (doa10∆): 1.85 ± 0.058
protein stability index (pdr5∆): 2.29 ± 0.062
protein stability index (san1∆): 2.35 ± 0.057
protein stability index (ubr1∆): 2.84 ± 0.046

FKQSNSETFLQFYVKRW [CDC53]
protein stability index (doa10∆): 2.93 ± 0.13
protein stability index (pdr5∆): 2.96 ± 0.071
protein stability index (san1∆): 2.96 ± 0.097
protein stability index (ubr1∆): 2.76 ± 0.1

FKRNAVFVGTIFAGAFV [QCR9]
protein stability index (doa10∆): 1.92 ± 0.064
protein stability index (pdr5∆): 1.58 ± 0.054
protein stability index (san1∆): 1.26 ± 0.12
protein stability index (ubr1∆): 1.67 ± 0.051

FKVQELLHSKPSLLLQK [NAS6]
protein stability index (doa10∆): 2.23 ± 0.13
protein stability index (pdr5∆): 2.3 ± 0.074
protein stability index (san1∆): 2.64 ± 0.14
protein stability index (ubr1∆): 2.31 ± 0.084

FKYIYELILAGAIDEAL [YDL116W/NUP84]
protein stability index (doa10∆): 1.6 ± 0.074
protein stability index (pdr5∆): 1.5 ± 0.073
protein stability index (san1∆): 1.44 ± 0.1
protein stability index (ubr1∆): 1.52 ± 0.067

FKYVEDRFPLKLREPVA [ITC1]
protein stability index (doa10∆): 2.42 ± 0.094
protein stability index (san1∆): 1.81 ± 0.26
protein stability index (ubr1∆): 2.73 ± 0.093

FLDGIYVSHKGFITEDL [RPL9A]
protein stability index (doa10∆): 2.38 ± 0.081
protein stability index (pdr5∆): 2.62 ± 0.063
protein stability index (san1∆): 2.43 ± 0.1
protein stability index (ubr1∆): 3.29 ± 0.07

FLDYTTDNVSMYPSPTG [PRP8]
protein stability index (doa10∆): 2.85 ± 0.056
protein stability index (pdr5∆): 2.85 ± 0.06
protein stability index (san1∆): 2.7 ± 0.06
protein stability index (ubr1∆): 2.95 ± 0.057

FLERKCVHMVYEYAEHD [SSN3]
protein stability index (doa10∆): 1.71 ± 0.061
protein stability index (pdr5∆): 1.67 ± 0.071
protein stability index (san1∆): 1.69 ± 0.09
protein stability index (ubr1∆): 1.83 ± 0.046

FLGYKAGMTTIVRDLDR [RPL3]
protein stability index (doa10∆): 2.48 ± 0.12
protein stability index (pdr5∆): 3.17 ± 0.18
protein stability index (san1∆): 2.93 ± 0.078
protein stability index (ubr1∆): 3.14 ± 0.1

FLIIVPKSTLDNWRREF [ISW2]
protein stability index (pdr5∆): 2.37 ± 0.27
protein stability index (san1∆): 1.94 ± 0.16
protein stability index (ubr1∆): 1.99 ± 0.22

FLKERLMEASDAFRVHI [RPB2]
protein stability index (doa10∆): 1.66 ± 0.073
protein stability index (pdr5∆): 1.7 ± 0.12
protein stability index (san1∆): 2 ± 0.15
protein stability index (ubr1∆): 1.74 ± 0.1

FLKKLRNEQVTIELKNG [SMD1]
protein stability index (doa10∆): 2.49 ± 0.051
protein stability index (pdr5∆): 2.24 ± 0.044
protein stability index (san1∆): 2.42 ± 0.056
protein stability index (ubr1∆): 2.67 ± 0.039

FLLRRVKADVEKSLLPK [ISW2]
protein stability index (doa10∆): 3.19 ± 0.13
protein stability index (pdr5∆): 3.05 ± 0.17
protein stability index (san1∆): 3.02 ± 0.079
protein stability index (ubr1∆): 2.94 ± 0.1

FLPFNNSASNNGNLTSN [SWI1]
protein stability index (doa10∆): 2.94 ± 0.093
protein stability index (pdr5∆): 3.02 ± 0.094
protein stability index (san1∆): 3.07 ± 0.058
protein stability index (ubr1∆): 2.9 ± 0.099

FLPKLNSVRNSLLLAHF [NUT1]
protein stability index (doa10∆): 2.15 ± 0.04
protein stability index (pdr5∆): 1.5 ± 0.046
protein stability index (san1∆): 1.65 ± 0.07
protein stability index (ubr1∆): 1.81 ± 0.029

FLQHPDEEYPVKVKVSY [PRP8]
protein stability index (doa10∆): 3.24 ± 0.083
protein stability index (pdr5∆): 3.18 ± 0.11
protein stability index (san1∆): 3.21 ± 0.082
protein stability index (ubr1∆): 2.63 ± 0.063

FLTVSKLWAEIIVKILY [GRR1]
protein stability index (doa10∆): 1.55 ± 0.046
protein stability index (pdr5∆): 1.97 ± 0.058
protein stability index (san1∆): 1.53 ± 0.087
protein stability index (ubr1∆): 1.37 ± 0.048

FMKSVIRSREAFSYEQA [DIS3]
protein stability index (doa10∆): 2.28 ± 0.11
protein stability index (pdr5∆): 2.73 ± 0.082
protein stability index (san1∆): 2 ± 0.13
protein stability index (ubr1∆): 2.71 ± 0.12

FNAPATGNGTTTTSNTS [YOR098C/NUP1]
protein stability index (doa10∆): 2.44 ± 0.034
protein stability index (pdr5∆): 2.83 ± 0.035
protein stability index (san1∆): 2.8 ± 0.035
protein stability index (ubr1∆): 2.836 ± 0.027

FNDFSNIKTSEWDLYPQ [REC8]
protein stability index (doa10∆): 2.84 ± 0.082
protein stability index (pdr5∆): 2.92 ± 0.053
protein stability index (san1∆): 2.78 ± 0.075
protein stability index (ubr1∆): 3.15 ± 0.082

FNGAQLKAVTVEAGMIA [RPT5]
protein stability index (doa10∆): 2.73 ± 0.28
protein stability index (pdr5∆): 2.62 ± 0.15
protein stability index (ubr1∆): 2.03 ± 0.19
